Patent US20230140797A1 (published 2023)

T1: human FcγRIIb extracellular domain with C-terminal His tag (human, UniProt P31994 43-217)
T1 sequence (looked up): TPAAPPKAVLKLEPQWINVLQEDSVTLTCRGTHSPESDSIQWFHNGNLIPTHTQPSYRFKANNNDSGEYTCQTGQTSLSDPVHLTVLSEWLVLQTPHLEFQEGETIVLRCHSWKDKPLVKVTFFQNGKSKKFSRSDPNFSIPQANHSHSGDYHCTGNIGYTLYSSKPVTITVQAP

T2: human FcγRIIa type R (131Arg) extracellular domain with C-terminal His tag (human, UniProt P12318 34-217)
T2 sequence (looked up): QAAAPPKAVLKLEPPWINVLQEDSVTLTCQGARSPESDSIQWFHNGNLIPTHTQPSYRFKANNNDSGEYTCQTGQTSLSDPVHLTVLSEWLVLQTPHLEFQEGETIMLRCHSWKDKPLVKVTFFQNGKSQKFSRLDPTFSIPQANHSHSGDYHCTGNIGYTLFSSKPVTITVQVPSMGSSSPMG

T3: human FcγRIIa type H (131His) extracellular domain with C-terminal His tag (human, UniProt P12318 34-217)
T3 sequence (looked up): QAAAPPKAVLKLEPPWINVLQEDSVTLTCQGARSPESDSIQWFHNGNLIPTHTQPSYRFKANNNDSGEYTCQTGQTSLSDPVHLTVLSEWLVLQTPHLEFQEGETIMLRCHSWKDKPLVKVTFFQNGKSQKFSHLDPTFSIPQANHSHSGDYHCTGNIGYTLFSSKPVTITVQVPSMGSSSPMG


Target: T1, human FcγRIIb extracellular domain with …
Test: SPR

| Kd | Binder |
| --- | --- |
| 51 nM | IL6R-BP436/IL6R-L (antibody, human IgG1, kappa) heavy: QVQLQESGPGLVKPSETLSLTCAVSGHSISHDHAWSWVRQPPGEGLEWIGFISYSGITNYNPSLQGRVTISRDNSKNTLYLQMNSLRAEDTAVYYCARSLARTTAMDYWGEGTLVTVSSASTKGPSVFPLAPSSKSTSGGTAALGCLVKDYFPEPVTVSWNSGALTSGVHTFPAVLQSSGLYSLSSVVTVPSSSLGTQTYICNVNHKPSNTKVDKKVEPKSCDKTHTCPPCPAPDLLGDDSVFLFPPKPKDTLMISRTPEVTCVVVDVAEEDGEVKFNWYVDGVEVHNAKTKPREEQDNSTYRVVSVLTVLHQDWLNGKEYKCKVSNKALPRPTEKTISKAKGQPREPQVYTLPPSRDELTKNQVSLTCLVKGFYPSDIAVEWESNGQPENNYKTTPPVLDSDGSFFLYSKLTVDKSRWQQGNVFSCSVMHEALHNHYTQESLSLSP light: not shown |
| 5600 nM | IL6R-BP479/IL6R-L (antibody, human IgG1, kappa) heavy: QVQLQESGPGLVKPSETLSLTCAVSGHSISHDHAWSWVRQPPGEGLEWIGFISYSGITNYNPSLQGRVTISRDNSKNTLYLQMNSLRAEDTAVYYCARSLARTTAMDYWGEGTLVTVSSASTKGPSVFPLAPSSKSTSGGTAALGCLVKDYFPEPVTVSWNSGALTSGVHTFPAVLQSSGLYSLSSVVTVPSSSLGTQTYICNVNHKPSNTKVDKKVEPKSCDKTHTCPPCPAPDLLGDDSVFLFPPKPKDTLMISRTPEVTCVVIDLAEEDGEVKFNWYVDGVEVHNAKTKPREEQYNSTYRVVSVLTVLHQDWLNGKEYKCKVSNKALPAPIEKTISKAKGQPREPQVYTLPPSRDELTKNQVSLTCLVKGFYPSDIAVEWESNGQPENNYKTTPPVLDSDGSFFLYSKLTVDKSRWQQGNVFSCSVMHEALHNHYTQESLSLSP light: not shown |
| 0.1 nM | IL6R-BP425/IL6R-L (antibody, human IgG1, kappa) heavy: QVQLQESGPGLVKPSETLSLTCAVSGHSISHDHAWSWVRQPPGEGLEWIGFISYSGITNYNPSLQGRVTISRDNSKNTLYLQMNSLRAEDTAVYYCARSLARTTAMDYWGEGTLVTVSSASTKGPSVFPLAPSSKSTSGGTAALGCLVKDYFPEPVTVSWNSGALTSGVHTFPAVLQSSGLYSLSSVVTVPSSSLGTQTYICNVNHKPSNTKVDKKVEPKSCDKTHTCPPCPAPDLLGDDSVFLFPPKPKDTLMISRTPEVTCVVVDLAEEDGEVKFNWYVDGVEVHNAKTKPREEQYNSTYRVVSVLTVLHQDWLNGKEYKCKVSNKALPRPIEKTISKAKGQPREPQVYTLPPSRDELTKNQVSLTCLVKGFYPSDIAVEWESNGQPENNYKTTPPVLDSDGSFFLYSKLTVDKSRWQQGNVFSCSVMHEALHNHYTQESLSLSP light: not shown |
| 1.2 nM | IL6R-BP431/IL6R-L (antibody, human IgG1, kappa) heavy: QVQLQESGPGLVKPSETLSLTCAVSGHSISHDHAWSWVRQPPGEGLEWIGFISYSGITNYNPSLQGRVTISRDNSKNTLYLQMNSLRAEDTAVYYCARSLARTTAMDYWGEGTLVTVSSASTKGPSVFPLAPSSKSTSGGTAALGCLVKDYFPEPVTVSWNSGALTSGVHTFPAVLQSSGLYSLSSVVTVPSSSLGTQTYICNVNHKPSNTKVDKKVEPKSCDKTHTCPPCPAPDLLGDDSVFLFPPKPKDTLMISRTPEVTCVVVDVGEDDGEVKFNWYVDGVEVHNAKTKPREEQYNSTYRVVSVLTVLHQDWLNGKEYKCKVSNKALPRPIEKTISKAKGQPREPQVYTLPPSRDELTKNQVSLTCLVKGFYPSDIAVEWESNGQPENNYKTTPPVLDSDGSFFLYSKLTVDKSRWQQGNVFSCSVMHEALHNHYTQESLSLSP light: not shown |

Target: T2, human FcγRIIa type R (131Arg) …
Test: SPR

| Kd | Binder |
| --- | --- |
| 11 nM | IL6R-BP493/IL6R-L (antibody, human IgG1, kappa) heavy: QVQLQESGPGLVKPSETLSLTCAVSGHSISHDHAWSWVRQPPGEGLEWIGFISYSGITNYNPSLQGRVTISRDNSKNTLYLQMNSLRAEDTAVYYCARSLARTTAMDYWGEGTLVTVSSASTKGPSVFPLAPSSKSTSGGTAALGCLVKDYFPEPVTVSWNSGALTSGVHTFPAVLQSSGLYSLSSVVTVPSSSLGTQTYICNVNHKPSNTKVDKKVEPKSCDKTHTCPPCPAPELLGGDSVFLFPPKPKDTLMISRTPEVTCVVIDVAEEDGEVKFNWYVDGVEVHNAKTKPREEQDNSTYRVVSVLTVLHQDWLNGKEYKCKVSNKALPAPIEKTISKAKGQPREPQVYTLPPSRDELTKNQVSLTCLVKGFYPSDIAVEWESNGQPENNYKTTPPVLDSDGSFFLYSKLTVDKSRWQQGNVFSCSVMHEALHNHYTQESLSLSP light: not shown |

Target: T3, human FcγRIIa type H (131His) …
Test: SPR

| Kd | Binder |
| --- | --- |
| 1500 nM | IL6R-BP440/IL6R-L (antibody, human IgG1, kappa) heavy: QVQLQESGPGLVKPSETLSLTCAVSGHSISHDHAWSWVRQPPGEGLEWIGFISYSGITNYNPSLQGRVTISRDNSKNTLYLQMNSLRAEDTAVYYCARSLARTTAMDYWGEGTLVTVSSASTKGPSVFPLAPSSKSTSGGTAALGCLVKDYFPEPVTVSWNSGALTSGVHTFPAVLQSSGLYSLSSVVTVPSSSLGTQTYICNVNHKPSNTKVDKKVEPKSCDKTHTCPPCPAPDLLGDDSVFLFPPKPKDTLMISRTPEVTCVVIDVSEEDGEVKFNWYVDGVEVHNAKTKPREEQYNSTYRVVSVLTVLHQDWLNGKEYKCKVSNKALPRPIEKTISKAKGQPREPQVYTLPPSRDELTKNQVSLTCLVKGFYPSDIAVEWESNGQPENNYKTTPPVLDSDGSFFLYSKLTVDKSRWQQGNVFSCSVMHEALHNHYTQESLSLSP light: not shown |
| 3 nM | IL6R-BP441/IL6R-L (antibody, human IgG1, kappa) heavy: QVQLQESGPGLVKPSETLSLTCAVSGHSISHDHAWSWVRQPPGEGLEWIGFISYSGITNYNPSLQGRVTISRDNSKNTLYLQMNSLRAEDTAVYYCARSLARTTAMDYWGEGTLVTVSSASTKGPSVFPLAPSSKSTSGGTAALGCLVKDYFPEPVTVSWNSGALTSGVHTFPAVLQSSGLYSLSSVVTVPSSSLGTQTYICNVNHKPSNTKVDKKVEPKSCDKTHTCPPCPAPDLLGDDSVFLFPPKPKDTLMISRTPEVTCVVVDLSEEDGEVKFNWYVDGVEVHNAKTKPREEQYNSTYRVVSVLTVLHQDWLNGKEYKCKVSNKALPRPIEKTISKAKGQPREPQVYTLPPSRDELTKNQVSLTCLVKGFYPSDIAVEWESNGQPENNYKTTPPVLDSDGSFFLYSKLTVDKSRWQQGNVFSCSVMHEALHNHYTQESLSLSP light: not shown |
| 13000 nM | IL6R-BP493/IL6R-L (antibody, human IgG1, kappa) heavy: QVQLQESGPGLVKPSETLSLTCAVSGHSISHDHAWSWVRQPPGEGLEWIGFISYSGITNYNPSLQGRVTISRDNSKNTLYLQMNSLRAEDTAVYYCARSLARTTAMDYWGEGTLVTVSSASTKGPSVFPLAPSSKSTSGGTAALGCLVKDYFPEPVTVSWNSGALTSGVHTFPAVLQSSGLYSLSSVVTVPSSSLGTQTYICNVNHKPSNTKVDKKVEPKSCDKTHTCPPCPAPELLGGDSVFLFPPKPKDTLMISRTPEVTCVVIDVAEEDGEVKFNWYVDGVEVHNAKTKPREEQDNSTYRVVSVLTVLHQDWLNGKEYKCKVSNKALPAPIEKTISKAKGQPREPQVYTLPPSRDELTKNQVSLTCLVKGFYPSDIAVEWESNGQPENNYKTTPPVLDSDGSFFLYSKLTVDKSRWQQGNVFSCSVMHEALHNHYTQESLSLSP light: not shown |
| 8300 nM | IL6R-BP481/IL6R-L (antibody, human IgG1, kappa) heavy: QVQLQESGPGLVKPSETLSLTCAVSGHSISHDHAWSWVRQPPGEGLEWIGFISYSGITNYNPSLQGRVTISRDNSKNTLYLQMNSLRAEDTAVYYCARSLARTTAMDYWGEGTLVTVSSASTKGPSVFPLAPSSKSTSGGTAALGCLVKDYFPEPVTVSWNSGALTSGVHTFPAVLQSSGLYSLSSVVTVPSSSLGTQTYICNVNHKPSNTKVDKKVEPKSCDKTHTCPPCPAPDLLGDDSVFLFPPKPKDTLMISRTPEVTCVVIDVAEEDGEVKFNWYVDGVEVHNAKTKPREEQYNSTYRVVSVLTVLHQDWLNGKEYKCKVSNKALPAPIEKTISKAKGQPREPQVYTLPPSRDELTKNQVSLTCLVKGFYPSDIAVEWESNGQPENNYKTTPPVLDSDGSFFLYSKLTVDKSRWQQGNVFSCSVMHEALHNHYTQESLSLSP light: not shown |

Target: human FcγRIa extracellular domain with C-terminal His tag (human, UniProt P12314 16-292)
Test: SPR

human FcγRIa extracellular domain with C-terminal His tag, sequence (P12314 16-292): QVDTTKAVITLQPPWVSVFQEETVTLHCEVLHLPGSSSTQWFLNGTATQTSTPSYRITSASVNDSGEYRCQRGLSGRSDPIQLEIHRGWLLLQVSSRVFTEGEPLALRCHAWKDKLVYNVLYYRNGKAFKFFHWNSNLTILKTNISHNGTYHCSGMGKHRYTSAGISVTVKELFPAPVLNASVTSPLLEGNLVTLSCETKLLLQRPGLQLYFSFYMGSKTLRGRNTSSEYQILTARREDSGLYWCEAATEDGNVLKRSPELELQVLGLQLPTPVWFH

| Kd | Binder |
| --- | --- |
| 3800 nM | IL6R-BP087/IL6R-L (antibody, human IgG1, kappa) heavy: QVQLQESGPGLVKPSETLSLTCAVSGHSISHDHAWSWVRQPPGEGLEWIGFISYSGITNYNPSLQGRVTISRDNSKNTLYLQMNSLRAEDTAVYYCARSLARTTAMDYWGEGTLVTVSSASTKGPSVFPLAPSSKSTSGGTAALGCLVKDYFPEPVTVSWNSGALTSGVHTFPAVLQSSGLYSLSSVVTVPSSSLGTQTYICNVNHKPSNTKVDKKVEPKSCDKTHTCPPCPAPEYLGGDSVFLFPPKPKDTLMISRTPEVTCVVVDVSHEDPEVKFNWYVDGVEVHNAKTKPREEQYNSTYRVVSVLTVLHQDWLNGKEYKCKVSNKALPKPIEKTISKAKGQPREPQVYTLPPSRDELTKNQVSLTCLVKGFYPSDIAVEWESNGQPENNYKTTPPVLDSDGSFFLYSKLTVDKSRWQQGNVFSCSVMHEALHNHYTQESLSLSP light: not shown |
| 300 nM | IL6R-BP150/IL6R-L (antibody, human IgG1, kappa) heavy: QVQLQESGPGLVKPSETLSLTCAVSGHSISHDHAWSWVRQPPGEGLEWIGFISYSGITNYNPSLQGRVTISRDNSKNTLYLQMNSLRAEDTAVYYCARSLARTTAMDYWGEGTLVTVSSASTKGPSVFPLAPSSKSTSGGTAALGCLVKDYFPEPVTVSWNSGALTSGVHTFPAVLQSSGLYSLSSVVTVPSSSLGTQTYICNVNHKPSNTKVDKKVEPKSCDKTHTCPPCPAPEYLGDDSVFLFPPKPKDTLMISRTPEVTCVVVDVSHEDPEVKFNWYVDGVEVHNAKTKPREEQYNSTYRVVSVLTVLHQDWLNGKEYKCKVSNAALPRPIEKTISKAKGQPREPQVYTLPPSRDELTKNQVSLTCLVKGFYPSDIAVEWESNGQPENNYKTTPPVLDSDGSFFLYSKLTVDKSRWQQGNVFSCSVMHEALHNHYTQESLSLSP light: not shown |
| 18 nM | IL6R-BP143/IL6R-L (antibody, human IgG1, kappa) heavy: QVQLQESGPGLVKPSETLSLTCAVSGHSISHDHAWSWVRQPPGEGLEWIGFISYSGITNYNPSLQGRVTISRDNSKNTLYLQMNSLRAEDTAVYYCARSLARTTAMDYWGEGTLVTVSSASTKGPSVFPLAPSSKSTSGGTAALGCLVKDYFPEPVTVSWNSGALTSGVHTFPAVLQSSGLYSLSSVVTVPSSSLGTQTYICNVNHKPSNTKVDKKVEPKSCDKTHTCPPCPAPEYLGGDSVFLFPPKPKDTLMISRTPEVTCVVVDVSHEDPEVKFNWYVDGVEVHNAKTKPREEQYNSTYRVVSVLTVLHQDWLNGKEYKCKVSNAALPAPIEKTISKAKGQPREPQVYTLPPSRDELTKNQVSLTCLVKGFYPSDIAVEWESNGQPENNYKTTPPVLDSDGSFFLYSKLTVDKSRWQQGNVFSCSVMHEALHNHYTQESLSLSP light: not shown |
